Results: PMC11339442

Molecular target: CD20
Test: flow_cytometry
Conditions: 4.0 °C

Substance | EC50 (pH 6.0) [nM] | EC50 (pH 7.4) [nM]
2OSL-Fab-H-Y97NY | 20 | –
2OSL-Fab (WT) | – | 14
2OSL-Fab-L-Y32NY | 8 | –
